Measured values taken from article PMC5437227.

Legend:
[1] = target: pH-GluA1 S845D phosphomimetic mutant (UniProt P19490)
[2] = target: pH-GluA1 S831A phosphodeficient mutant (UniProt P19490); assay: co-IP; HEK293 cells co-transfected with HA-Nedd4-1 and pH-GluA1 constructs, lysed 48 h later (1% Triton X-100 lysis buffer with 10 mM N-ethylmaleimide); immunoprecipitation with anti-GFP antibodies on protein A-Sepharose overnight at 4 °C; blots with anti-HA and anti-GluA1; bound HA-Nedd4-1 quantified and normalized to the wild-type control
[3] = target: pH-GluA1 S831D phosphomimetic mutant (UniProt P19490); assay: as above
[4] = target: pH-GluA1 S845A phosphodeficient mutant (UniProt P19490); assay: as above
[5] = target: pH-GluA1 S845D phosphomimetic mutant (UniProt P19490); assay: as above

- AMPA-induced ubiquitination of pH-GluA1 S845D in cortical neurons (IP: GFP, blot for ubiquitin), relative to wild type (% of WT control) [1]: 65.2
- HA-Nedd4-1 binding, percent of WT control (% of WT control) [2]: 74.1
- HA-Nedd4-1 binding, percent of WT control (% of WT control) [3]: 112
- HA-Nedd4-1 binding, percent of WT control (% of WT control) [4]: 90.9
- HA-Nedd4-1 binding, percent of WT control (% of WT control) [5]: 53.2
Substance: HA-Nedd4-1 (from UniProt P46934 1-1319) (enzyme)
